Patent publication US20200291104A1 (UCB, published 2020)
Where “and” joins values, the source holds several entries; their conditions need not be identical. Equal values may be shown once.

How the values were obtained:
[1] = target: cynomolgus TNF (cynomolgus) (UniProt P79337); assay: SPR (Biacore T200); Fab captured by anti-human F(ab')2, cynomolgus TNF injected at 3.125 nM
human TNF-alpha [2] = target: T1, human TNF-alpha (human, UniProt P01375 77-233); assay: SPR (Biacore T200); Fab captured by anti-human F(ab')2, human TNF injected at 5 nM
human TNF-alpha [3] = target: T1, human TNF-alpha; assay: SPR (Biacore T200); IgG captured by anti-mouse IgG-Fc, human TNF injected at 20 nM
human TNF-alpha [4] = target: T1, human TNF-alpha; assay: cell-based or functional assay

T1 sequence (P01375 77-233 limits assumed): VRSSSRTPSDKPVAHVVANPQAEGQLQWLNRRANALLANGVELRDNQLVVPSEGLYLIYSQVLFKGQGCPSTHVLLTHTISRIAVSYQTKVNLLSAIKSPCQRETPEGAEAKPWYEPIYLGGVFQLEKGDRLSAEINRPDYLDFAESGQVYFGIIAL

| Binder | Kd [1] | koff [1] [s⁻¹] | kon [1] [M⁻¹ s⁻¹] | Kd (human TNF-alpha [2]) | koff (human TNF-alpha [2]) [s⁻¹] | kon (human TNF-alpha [2]) [M⁻¹ s⁻¹] | Kd (human TNF-alpha [3]) [nM] | koff (human TNF-alpha [3]) [s⁻¹] | kon (human TNF-alpha [3]) [M⁻¹ s⁻¹] | EC50 (ng/ml), neutralisation in HEK-293-CD40-BLUE reporter assay (human TNF-alpha [4]) [ng/mL] |
| --- | --- | --- | --- | --- | --- | --- | --- | --- | --- | --- |
| 2109 rat/human chimeric Fab (Fab, V domains shown) VH: EVQLHQSGAALVKPGASVKLSCKTSGYTFTDNYIHWVKQSPGKSLEWIGYINPSSAYAHYNEKFKTKATLTVDKSTNTAYMELSRLTSEDSATYFCTRRYYSAMPFAYWGQGTLVTVSS VL: DIVMTQSPASLSASLGETVTIECRASEDIYNGLAWYQQKPGKSPHLLIYNSNTLHTGVPSRFSGTGSGTQYSLKINSLQSEDVATYFCQQNYDFPLTFGSGTKLELKR | 0.0274 nM and 0.027 nM | 0.000102 | 3.71e+06 | 0.0349 nM and 0.035 nM | 0.000143 | 4.09e+06 |  |  |  |  |
| CA2109 IgG (recombinant rat/mouse chimeric IgG1) (antibody, V domains shown) VH: EVQLHQSGAALVKPGASVKLSCKTSGYTFTDNYIHWVKQSPGKSLEWIGYINPSSAYAHYNEKFKTKATLTVDKSTNTAYMELSRLTSEDSATYFCTRRYYSAMPFAYWGQGTLVTVSS VL: DIVMTQSPASLSASLGETVTIECRASEDIYNGLAWYQQKPGKSPHLLIYNSNTLHTGVPSRFSGTGSGTQYSLKINSLQSEDVATYFCQQNYDFPLTFGSGTKLELK |  |  |  |  |  |  | 0.025 | 0.000119 | 4.7e+06 | 0.31 |
